Results taken from patent publication US20250115677A1, “Anti-CEA Antibody Drug Conjugates and Methods of Use” (BeiGene Switzerland GmbH, priority 2022, published 2025).

Legend:
CEA variant (CEA-v) = biological target: T1, CEA variant (CEA-v) (human, UniProt P06731 35-687); assay: SPR (BIAcore T-200); antibody captured by anti-murine IgG, antigen flowed
T1 construct: Splice-variant construct made by overlap PCR of CEA AA 1-78 and AA 398-687, C-terminal 6xHis; also called sCEA-v
T1 sequence: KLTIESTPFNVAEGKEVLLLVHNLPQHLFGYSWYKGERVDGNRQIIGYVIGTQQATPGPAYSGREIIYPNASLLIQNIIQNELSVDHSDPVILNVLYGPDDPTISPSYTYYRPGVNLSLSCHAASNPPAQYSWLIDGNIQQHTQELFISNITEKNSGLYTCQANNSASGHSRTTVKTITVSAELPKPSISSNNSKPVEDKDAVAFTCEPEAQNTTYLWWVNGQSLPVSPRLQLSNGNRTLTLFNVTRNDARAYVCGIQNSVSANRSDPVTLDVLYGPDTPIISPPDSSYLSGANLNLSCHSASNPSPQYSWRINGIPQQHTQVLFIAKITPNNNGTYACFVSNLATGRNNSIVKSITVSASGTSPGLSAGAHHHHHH
Procedure: (§1) Briefly, anti-murine IgG antibody was immobilized on an activated CM5 biosensor chip (Cat. No. BR100530, GE Life Sciences). Purified murine antibodies were flowed over the chip surface and captured by anti-murine IgG antibody. […] The equilibrium dissociation constant (KD) was calculated as the ratio koff/kₒₙ.

[1] = biological target: T2, chimeric construct (CHIM) (human); assay: as above
T2 construct: CEACAM6 AA 1-273 joined to the membrane-peripheral region containing domain B3 of CEA (AA 596-687), C-terminal 6xHis; also called chimeric CEA
T2 chain: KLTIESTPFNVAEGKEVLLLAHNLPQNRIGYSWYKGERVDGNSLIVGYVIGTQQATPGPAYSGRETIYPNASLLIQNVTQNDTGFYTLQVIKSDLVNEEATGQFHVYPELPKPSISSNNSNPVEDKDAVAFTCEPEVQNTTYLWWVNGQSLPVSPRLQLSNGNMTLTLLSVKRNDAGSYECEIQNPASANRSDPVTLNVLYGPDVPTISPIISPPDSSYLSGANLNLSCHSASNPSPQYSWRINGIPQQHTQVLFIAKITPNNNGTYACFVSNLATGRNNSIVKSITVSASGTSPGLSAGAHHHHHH
Procedure: as §1

[2] = biological target: T3, human CEA on cells (MKN45, LOVO, NCI-H2122, LS174T, CT26/CEA) (human, UniProt P06731 35-685); assay: cell-based or functional assay
T3 sequence: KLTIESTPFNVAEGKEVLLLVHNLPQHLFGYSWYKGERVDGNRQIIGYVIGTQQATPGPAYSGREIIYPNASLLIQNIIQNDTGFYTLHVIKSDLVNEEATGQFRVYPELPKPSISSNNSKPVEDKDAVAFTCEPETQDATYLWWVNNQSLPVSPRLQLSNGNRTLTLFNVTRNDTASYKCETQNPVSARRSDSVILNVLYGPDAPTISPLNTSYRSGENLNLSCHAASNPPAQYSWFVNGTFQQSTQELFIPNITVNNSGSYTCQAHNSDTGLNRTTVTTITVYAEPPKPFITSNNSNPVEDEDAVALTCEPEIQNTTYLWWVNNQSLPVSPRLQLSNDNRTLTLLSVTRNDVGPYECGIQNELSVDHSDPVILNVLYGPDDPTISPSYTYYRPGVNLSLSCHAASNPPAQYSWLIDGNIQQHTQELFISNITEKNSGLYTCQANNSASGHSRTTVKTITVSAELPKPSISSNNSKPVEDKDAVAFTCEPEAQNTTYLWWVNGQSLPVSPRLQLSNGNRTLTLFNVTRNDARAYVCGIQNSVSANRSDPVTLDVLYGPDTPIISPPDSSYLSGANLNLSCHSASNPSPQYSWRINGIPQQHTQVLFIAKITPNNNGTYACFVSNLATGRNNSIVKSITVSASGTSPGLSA

[3] = biological target: T2, chimeric construct (CHIM); assay: SPR; binding to CHIM
[4] = biological target: T3, human CEA on cells (MKN45, LOVO, …); assay: flow cytometry on MKN45 cells
[5] = biological target: T4, recombinant soluble human CEA (extracellular domain, AA 1-687 of huCEA, C-terminal 6xHis) (human, UniProt P06731 35-687); assay: SPR; kinetics on huCEA, IgG format
T4 construct: also called sCEA; soluble CEA
T4 sequence: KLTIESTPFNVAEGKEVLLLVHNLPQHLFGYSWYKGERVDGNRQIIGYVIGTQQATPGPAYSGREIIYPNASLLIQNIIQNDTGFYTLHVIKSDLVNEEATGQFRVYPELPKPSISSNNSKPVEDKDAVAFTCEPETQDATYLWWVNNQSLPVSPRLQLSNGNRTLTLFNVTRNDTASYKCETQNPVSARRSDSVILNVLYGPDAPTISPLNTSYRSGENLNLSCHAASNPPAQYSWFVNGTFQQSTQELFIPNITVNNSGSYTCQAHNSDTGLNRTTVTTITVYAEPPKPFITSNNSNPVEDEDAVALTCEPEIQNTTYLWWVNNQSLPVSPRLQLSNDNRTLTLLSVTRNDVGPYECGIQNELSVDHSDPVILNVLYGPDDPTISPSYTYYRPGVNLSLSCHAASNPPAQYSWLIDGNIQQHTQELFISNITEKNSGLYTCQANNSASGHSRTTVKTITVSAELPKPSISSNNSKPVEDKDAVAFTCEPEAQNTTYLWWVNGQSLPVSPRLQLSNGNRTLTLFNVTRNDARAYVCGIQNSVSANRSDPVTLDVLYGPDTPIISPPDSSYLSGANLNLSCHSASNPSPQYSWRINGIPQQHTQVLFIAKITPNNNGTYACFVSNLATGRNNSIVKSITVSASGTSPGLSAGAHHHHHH

[6] = biological target: T3, human CEA on cells (MKN45, LOVO, …); assay: flow cytometry on MKN45 cells, Alexa Fluor 647 anti-human IgG Fc
Procedure: For flow cytometry, CEA-expressing MKN45 cells (10^5 cells/well) were incubated with various concentrations of purified affinity-matured antibodies, followed by binding with Alexa Fluor-647-labeled anti-hu IgG Fc antibody (Cat. No. 409320, BioLegend, USA). Cell fluorescence was quantified using a flow cytometer (Guava easyCyte™ 8HT, Merck-Millipore, USA).

CEA = biological target: T5, CEA (Homo sapiens, UniProt P06731); assay: Binding of humanized and PTM-engineered BGA7592 variants compared to BGA7592-1
T5 sequence (P06731 35-676): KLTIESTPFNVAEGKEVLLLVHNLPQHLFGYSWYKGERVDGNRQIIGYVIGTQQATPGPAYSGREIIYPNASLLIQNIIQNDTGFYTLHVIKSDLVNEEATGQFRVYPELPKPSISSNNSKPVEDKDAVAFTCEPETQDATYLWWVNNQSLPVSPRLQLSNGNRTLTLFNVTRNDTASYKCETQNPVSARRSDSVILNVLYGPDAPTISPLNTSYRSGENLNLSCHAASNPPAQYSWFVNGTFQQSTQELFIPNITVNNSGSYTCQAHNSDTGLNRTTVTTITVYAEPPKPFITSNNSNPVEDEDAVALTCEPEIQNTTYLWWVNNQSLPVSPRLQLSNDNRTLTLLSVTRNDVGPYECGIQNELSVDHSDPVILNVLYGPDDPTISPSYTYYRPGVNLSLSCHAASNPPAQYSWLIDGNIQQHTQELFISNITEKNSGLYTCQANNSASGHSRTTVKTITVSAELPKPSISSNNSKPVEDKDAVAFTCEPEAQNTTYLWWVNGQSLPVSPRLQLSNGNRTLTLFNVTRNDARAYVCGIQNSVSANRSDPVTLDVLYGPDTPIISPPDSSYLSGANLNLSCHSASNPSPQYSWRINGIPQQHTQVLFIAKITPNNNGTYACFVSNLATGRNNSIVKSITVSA
Description: Using BGA7592-1, an additional number of single or multiple amino acid changes were made, converting the human residues in framework regions of VH and VL to corresponding murine germline residues, which include V68A, R72A and V79A in VH and V43S in VL, respectively. This resulted BGA7592-2 (V68A, R72A in VH), BGA7592-3 (V79A in VH), BGA7592-4 (V68A, R72A, V79A in VH), BGA7592-5 (V43S in VL), BGA7592-6 (V68A, R72A in VH, and V43S in VL), BGA7592-7 (V79A in VH, V43S in VL) and BGA7592-8 (V68A, R72A, V79A, in VH and V43S in VL). All antibodies which contained modifications had similar binding activities to BGA7592-1, and none of the changes abolished binding.
In order to remove post-translational modification (PTM) sites, further engineering was made by introducing mutations in CDRs and framework regions based on the BGA75921 sequence, which include N52T, N54Q, N59S, N102G, N104Q and S61A amino acid changes in the VH region. […] While maintaining specificity, amino acid compositions and expression levels were also considered. All humanization mutations were made using primers containing mutations at specific positions and a site directed mutagenesis kit (Cat. FM 111-02, TransGen, Beijing, China). The desired mutations were verified by sequence analysis.

B1: BGA7592 (antibody, V domains shown)
VH: QVQLQQSGAELAKSGASVKMSCKASGYIFTSYWLHWVKQRPGQGLEWIGYINPNTGYTNYSQKFKDKATLTADKSSSTAYMQLSSLTSEDSAVYYCAREYGNYNYPLDYWGQGTSVTVSS
VL: DIQMTQSPASLSASVGETVTITCRASENIYGYLAWYQQKQGKSPQLLVFNAKNLVEGVPSRFSGSGSGTQFSLKINSLQPEDFGSYYCQHHYGTPYTFGGGTKLEIK
notes: Murine monoclonal antibody purified from hybridoma supernatant; also called murine anti-CEA antibody BGA7592
With B1 the Kd (CEA variant (CEA-v)) was 150 nM and the Kd [1] was 120 nM.

B2: BGA6710 (antibody, human IgG1, V domains shown)
VH: QVQLVQSGAEVKKPGASVKVSCKASGYIFTSYYLHWVRQAPGQGLEWIGYINPQTGYTSYAQKFQGRVTMTRDTSTSTVYMELSSLRSEDTAVYYCAREYGNYNYPLDYWGQGTLVTVSS
VL: DIQMTQSPSSLSASVGDRVTITCRASENQYGYLAWYQQKPGKVPKLLIYNYKNLVEGVPSRFSGSGSGTDFTLTISSLQPEDVATYYCQHHLGTPYTFGQGTKVEIK
notes: BGA2433 with W33Y (VH) and T51Y (VL); wild-type human IgG1 format
B2 was tested, and the “ADCC (LDH release), NK92MI/CD16V effector cells with CT26 cells expressing CEA, EC50” value [2] was about 0.0067 µg/mL, the Kd [3] was 15.1 nM and the koff [3] was 0.000475 s⁻¹. For the same molecule, the kon [3] was 31500 M⁻¹ s⁻¹, the EC50 [4] was 0.49 µg/mL and the Top [4] was 919. For the same molecule, the Kd [5] was 1.49 nM, the koff [5] was 0.000169 s⁻¹ and the kon [5] was 113000 M⁻¹ s⁻¹. For the same molecule, the “EC50 (read off the curve)” value [6] was about 0.5 µg/mL.

B3: BGA7592-1F: "BGA7592-1F (N54Q, N59S, S61 A (VH))"; humanized, "no glycosylation sites but had a high expression level" (antibody, V domains shown)
VH: QVQLVQSGAEVKKPGASVKVSCKASGYIFTSYWLHWVRQAPGQGLEWIGYINPQTGYTSYAQKFQGRVTMTRDTSTSTVYMELSSLRSEDTAVYYCAREYGNYNYPLDYWGQGTLVTVSS
VL: DIQMTQSPSSLSASVGDRVTITCRASENIYGYLAWYQQKPGKVPKLLIYNAKNLVEGVPSRFSGSGSGTDFTLTISSLQPEDVATYYCQHHYGTPYTFGQGTKVEIK
In the case of B3, the “binding affinities compared to BGA7592-1” value (CEA) is reported as “significantly reduced binding affinities”.
